# Assay results from the supplement of paper PMC10567573.
# B1: FBXO34 (parent)
# chain: PRYREDPCKQCKKKYVKGDVSLCR
# B2: KRT13 (parent)
# chain: TPGIDLTRVLAEMREQYEAMAERN
# Variants of: B1
# Experiment: protein stability index of a GFP-peptide fusion (GPS, HEK-293T) (PSI 1-6); higher = more stable
# Conditions: c terminus: a fixed tail appended
# 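Note: lentivirally expressed fusions sorted by FACS into six bins by GFP to DsRed ratio, PSI derived from sequencing read proportions per bin multiplied by bin number.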
row,Variant,protein stability index
1,PRYREDPCKQCKKKYVKVDVSLCR,2.46
2,PRYREDPCKQCKKKYVKWDVSLCR,2.3
3,PRYREDPCKQCKKKYVKYDVSLCR,2.35
4,PRYREDPCKQCKKKYVKGAVSLCR,3.15
5,PRYREDPCKQCKKKYVKGCVSLCR,3.07
6,PRYREDPCKQCKKKYVKGEVSLCR,3.31
7,PRYREDPCKQCKKKYVKGFVSLCR,2.23
8,PRYREDPCKQCKKKYVKGGVSLCR,2.63
9,PRYREDPCKQCKKKYVKGHVSLCR,2.88
10,PRYREDPCKQCKKKYVKGIVSLCR,3.18
11,PRYREDPCKQCKKKYVKGKVSLCR,3.14
12,PRYREDPCKQCKKKYVKGLVSLCR,2.43
13,PRYREDPCKQCKKKYVKGMVSLCR,2.84
14,PRYREDPCKQCKKKYVKGNVSLCR,3.52
15,PRYREDPCKQCKKKYVKGPVSLCR,2.66
16,PRYREDPCKQCKKKYVKGQVSLCR,2.71
17,PRYREDPCKQCKKKYVKGRVSLCR,3.41
18,PRYREDPCKQCKKKYVKGSVSLCR,2.38
19,PRYREDPCKQCKKKYVKGTVSLCR,2.97
20,PRYREDPCKQCKKKYVKGVVSLCR,2.07
21,PRYREDPCKQCKKKYVKGWVSLCR,2.56
22,PRYREDPCKQCKKKYVKGYVSLCR,2.56
23,PRYREDPCKQCKKKYVKGDASLCR,2.85
24,PRYREDPCKQCKKKYVKGDCSLCR,3.68

row,Variant,protein stability index
1,PRYREDPCKQCKKKYVKGDDSLCR,3.29
2,PRYREDPCKQCKKKYVKGDESLCR,2.8
3,PRYREDPCKQCKKKYVKGDFSLCR,1.93
4,PRYREDPCKQCKKKYVKGDGSLCR,2.18
5,PRYREDPCKQCKKKYVKGDHSLCR,3.51
6,PRYREDPCKQCKKKYVKGDISLCR,2.64
7,PRYREDPCKQCKKKYVKGDKSLCR,3.07
8,PRYREDPCKQCKKKYVKGDLSLCR,2.46
9,PRYREDPCKQCKKKYVKGDMSLCR,2.88
10,PRYREDPCKQCKKKYVKGDNSLCR,2.97
11,PRYREDPCKQCKKKYVKGDPSLCR,3.05
12,PRYREDPCKQCKKKYVKGDQSLCR,3.31
13,PRYREDPCKQCKKKYVKGDRSLCR,2.49
14,PRYREDPCKQCKKKYVKGDSSLCR,3.11
15,PRYREDPCKQCKKKYVKGDTSLCR,2.52
16,PRYREDPCKQCKKKYVKGDWSLCR,2.06
17,PRYREDPCKQCKKKYVKGDYSLCR,2.38
18,PRYREDPCKQCKKKYVKGDVALCR,3.03
19,PRYREDPCKQCKKKYVKGDVCLCR,4.63
20,PRYREDPCKQCKKKYVKGDVDLCR,2.92
21,PRYREDPCKQCKKKYVKGDVELCR,2.83
22,PRYREDPCKQCKKKYVKGDVFLCR,2.67
23,PRYREDPCKQCKKKYVKGDVGLCR,2.54
24,PRYREDPCKQCKKKYVKGDVHLCR,3.53

row,Variant,protein stability index
1,PRYREDPCKQCKKKYVKGDVILCR,2.34
2,PRYREDPCKQCKKKYVKGDVKLCR,2.87
3,PRYREDPCKQCKKKYVKGDVLLCR,2.22
4,PRYREDPCKQCKKKYVKGDVMLCR,2.51
5,PRYREDPCKQCKKKYVKGDVNLCR,2.64
6,PRYREDPCKQCKKKYVKGDVPLCR,2.53
7,PRYREDPCKQCKKKYVKGDVQLCR,3.14
8,PRYREDPCKQCKKKYVKGDVRLCR,2.97
9,PRYREDPCKQCKKKYVKGDVTLCR,2.66
10,PRYREDPCKQCKKKYVKGDVVLCR,3.13
11,PRYREDPCKQCKKKYVKGDVWLCR,2.16
12,PRYREDPCKQCKKKYVKGDVYLCR,2.18
13,PRYREDPCKQCKKKYVKGDVSACR,3.12
14,PRYREDPCKQCKKKYVKGDVSCCR,3.15
15,PRYREDPCKQCKKKYVKGDVSDCR,3.01
16,PRYREDPCKQCKKKYVKGDVSECR,3.48
17,PRYREDPCKQCKKKYVKGDVSFCR,2.58
18,PRYREDPCKQCKKKYVKGDVSGCR,3.18
19,PRYREDPCKQCKKKYVKGDVSHCR,2.88
20,PRYREDPCKQCKKKYVKGDVSICR,3.12
21,PRYREDPCKQCKKKYVKGDVSKCR,3.6
22,PRYREDPCKQCKKKYVKGDVSMCR,2.6
23,PRYREDPCKQCKKKYVKGDVSNCR,3.01
24,PRYREDPCKQCKKKYVKGDVSPCR,2.41

row,Variant,protein stability index
1,PRYREDPCKQCKKKYVKGDVSQCR,2.32
2,PRYREDPCKQCKKKYVKGDVSRCR,3.31
3,PRYREDPCKQCKKKYVKGDVSSCR,3.29
4,PRYREDPCKQCKKKYVKGDVSTCR,2.93
5,PRYREDPCKQCKKKYVKGDVSVCR,3.23
6,PRYREDPCKQCKKKYVKGDVSWCR,2.08
7,PRYREDPCKQCKKKYVKGDVSYCR,2.54
8,PRYREDPCKQCKKKYVKGDVSLAR,2.95
9,PRYREDPCKQCKKKYVKGDVSLDR,3.3
10,PRYREDPCKQCKKKYVKGDVSLER,2.71
11,PRYREDPCKQCKKKYVKGDVSLFR,2.27
12,PRYREDPCKQCKKKYVKGDVSLGR,2.88
13,PRYREDPCKQCKKKYVKGDVSLHR,3.1
14,PRYREDPCKQCKKKYVKGDVSLIR,2.59
15,PRYREDPCKQCKKKYVKGDVSLKR,3.29
16,PRYREDPCKQCKKKYVKGDVSLLR,3.1
17,PRYREDPCKQCKKKYVKGDVSLMR,2.95
18,PRYREDPCKQCKKKYVKGDVSLNR,2.53
19,PRYREDPCKQCKKKYVKGDVSLPR,2.52
20,PRYREDPCKQCKKKYVKGDVSLQR,1.9
21,PRYREDPCKQCKKKYVKGDVSLRR,2.86
22,PRYREDPCKQCKKKYVKGDVSLSR,2.58
23,PRYREDPCKQCKKKYVKGDVSLTR,3.12
24,PRYREDPCKQCKKKYVKGDVSLVR,3.18

row,Variant,protein stability index
1,PRYREDPCKQCKKKYVKGDVSLWR,1.85
2,PRYREDPCKQCKKKYVKGDVSLYR,2.11
3,PRYREDPCKQCKKKYVKGDVSLCA,2.9
4,PRYREDPCKQCKKKYVKGDVSLCC,3.58
5,PRYREDPCKQCKKKYVKGDVSLCD,3.82
6,PRYREDPCKQCKKKYVKGDVSLCE,4.08
7,PRYREDPCKQCKKKYVKGDVSLCF,2.51
8,PRYREDPCKQCKKKYVKGDVSLCG,3.11
9,PRYREDPCKQCKKKYVKGDVSLCH,3.42
10,PRYREDPCKQCKKKYVKGDVSLCI,2.46
11,PRYREDPCKQCKKKYVKGDVSLCK,4.33
12,PRYREDPCKQCKKKYVKGDVSLCL,2.52
13,PRYREDPCKQCKKKYVKGDVSLCM,3.09
14,PRYREDPCKQCKKKYVKGDVSLCN,3.46
15,PRYREDPCKQCKKKYVKGDVSLCP,4.39
16,PRYREDPCKQCKKKYVKGDVSLCQ,3.91
17,PRYREDPCKQCKKKYVKGDVSLCS,3.39
18,PRYREDPCKQCKKKYVKGDVSLCT,3.05
19,PRYREDPCKQCKKKYVKGDVSLCV,3.34
20,PRYREDPCKQCKKKYVKGDVSLCW,2.27
21,PRYREDPCKQCKKKYVKGDVSLCY,2.87

# Variants of: B2
# Experiment: as above
# Conditions: c terminus: a fixed tail appended
row,Variant,protein stability index
1,TPGIDFTRVLAEMREQYEAMAERN,3.98
2,TPGIDLTRVLAEMRECYEAMAERN,4.57
3,TPGIDLTRVLAEMREQYEAMACRN,3.7
4,TPGIDLTRVLAEMREQYKAMAERN,3.84
5,TYGIDLTRVLAEMREQYEAMAERN,3.69
6,TPGIDLTRVLAQMREQYEAMAERN,4.76
7,TPGIDLTRVLAEMREQYEAMAERK,3.27
8,TPGIDLTRVLAEMREQYEALAERN,3.74
9,TPGIDLTRVLAEMREQYEADAERN,4.79
10,TPGIDLTRVLAEMYEQYEAMAERN,3.61
11,TPGIDLRRVLAEMREQYEAMAERN,2.8
12,TPGIWLTRVLAEMREQYEAMAERN,1.72
13,TPGIDLTRVLAEMRKQYEAMAERN,3.83
14,TPGIDSTRVLAEMREQYEAMAERN,5.29
15,TPGIDLTRVLAEMREQYEAMVERN,3.55
16,TPGIDLTRVLAEMREQCEAMAERN,4.23
17,TPGIDLTRVLAEMRELYEAMAERN,2.94
18,TPGIDLTRVLAEKREQYEAMAERN,4.24
19,TPGIDLTRVLAEMREQYSAMAERN,3.96
20,TPGIQLTRVLAEMREQYEAMAERN,3.8
21,TPGIDLTRVLAEMREQYEAEAERN,4.49
22,TDGIDLTRVLAEMREQYEAMAERN,3.69
23,TPGIDLTAVLAEMREQYEAMAERN,4.26
24,TPEIDLTRVLAEMREQYEAMAERN,2.78

row,Variant,protein stability index
1,TPGIDLTRVLAEMREQYEAMAMRN,4.03
2,TPGIDLTRVLAEMRFQYEAMAERN,3.26
3,TPGIDLTRVLAEYREQYEAMAERN,4.11
4,TPGIDLTRVLAEMREQWEAMAERN,5.02
5,TPGIDLTRVLAEVREQYEAMAERN,3.3
6,TPGIDKTRVLAEMREQYEAMAERN,4.7
7,MPGIDLTRVLAEMREQYEAMAERN,3.9
8,TPGIDLTRVLAEMREQYEAMRERN,4.18
9,TPGIDLTIVLAEMREQYEAMAERN,3.08
10,TPGIDLTRVLAMMREQYEAMAERN,2.96
11,TPGIDLTRVLAEMREQYEAAAERN,4.74
12,TPGIDLTRVLAEMREQYEAMAFRN,2.98
13,TPGIDLTRVLAPMREQYEAMAERN,4.36
14,TPGIDLTRVLAEMREQYIAMAERN,3.98
15,TPGIDLTMVLAEMREQYEAMAERN,4.01
16,TPGIDLTRVLAEMREQYPAMAERN,2.72
17,TMGIDLTRVLAEMREQYEAMAERN,2.97
18,TPGIDLTRVLAEPREQYEAMAERN,3.3
19,TPGIDLTRVLAEMREQYEAMAERM,4.67
20,TPGIDLTRVLAEMRSQYEAMAERN,3.61
21,TCGIDLTRVLAEMREQYEAMAERN,3.36
22,TPGIDLTRVLAEMREQYEAMANRN,4.04
23,TPGIDLTRVLAEMREQYEAMAETN,4.08
24,TPGIDLTRVLAEMREQYEAMATRN,3.87

row,Variant,protein stability index
1,TPGIDLTRVLAEMRVQYEAMAERN,2.24
2,THGIDLTRVLAEMREQYEAMAERN,4.41
3,TPGIDLTRVLAEMREQYEAMAVRN,2.56
4,TPGIDLTRVLAENREQYEAMAERN,5.48
5,TPGIDTTRVLAEMREQYEAMAERN,5.4
6,CPGIDLTRVLAEMREQYEAMAERN,3.45
7,TLGIDLTRVLAEMREQYEAMAERN,2.86
8,TPGIDLTRVVAEMREQYEAMAERN,4.8
9,TPGIDLTRVLAEMREQYEAMLERN,4.39
10,TPIIDLTRVLAEMREQYEAMAERN,3.38
11,TPGIDLTRVLAEMREQGEAMAERN,6
12,TPGIDLTRVLAEMFEQYEAMAERN,3.65
13,TPGIDLTRVLPEMREQYEAMAERN,4.65
14,TPGIDLTRVLAEMREQYEAMAIRN,2.79
15,TPGADLTRVLAEMREQYEAMAERN,3.97
16,TPGIDLTRVLAEMREQYEGMAERN,4.22
17,TPGIDLTRVLAEMREQYEAMAEGN,3.98
18,TPGIDLTRVLAEMREYYEAMAERN,4.01
19,TPGIDLVRVLAEMREQYEAMAERN,2.81
20,TPGIDLTRPLAEMREQYEAMAERN,4.49
21,TPGIDLTRVLKEMREQYEAMAERN,4.23
22,TPGIDWTRVLAEMREQYEAMAERN,3.09
23,TPGIDLTRVSAEMREQYEAMAERN,4.87
